Source: patent publication US20170115280

Biological target: reconstituted nascent HDL (rHDL) particle made with isolated human apoA-I (UniProt P02647)
Sequence (P02647 25-267): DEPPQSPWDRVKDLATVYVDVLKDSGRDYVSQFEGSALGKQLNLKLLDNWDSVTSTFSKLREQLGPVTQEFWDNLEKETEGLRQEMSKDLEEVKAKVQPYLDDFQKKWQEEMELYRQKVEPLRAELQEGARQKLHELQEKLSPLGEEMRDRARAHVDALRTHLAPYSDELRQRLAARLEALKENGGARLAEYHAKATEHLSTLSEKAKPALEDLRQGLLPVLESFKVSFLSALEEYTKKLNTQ

Substance	stability of arylesterase activity at 37° C. in the presence of HDL	rate of inactivation of PON1 (arylesterase activity) with EDTA and β-mercaptoethanol in the presence of rHDL
rPON1 Y293K mutant	the Y293K PON1 mutant shows the fastest rate of inactivation	–
recombinant paraoxonase 1 (PON1) variant G3C9, His-tagged (rPON1 WT)	when HDL is present, WT PON1 is quite stable at 37 °C	A very slow inactivation of WT rPON1 was observed in the presence of rHDL
rPON1 Y294K mutant	the rate of Y293K loss in activity is faster than either Y294K or WT PON1, and comparison of Y293K vs. Y294K shows significant difference as well	–
rPON1 pan K mutant (Leu9→Lys9, Tyr185→Lys185 and Tyr293→Lys293) with C-terminal His8 tag	–	no protective effects were observed when the pan K rPON1 mutant was incubated with either rHDL or detergent
